Assay results from patent US7501122 (Genentech, dated 2009).

Tests used:
ErbB4 (HER4) = target: T1, ErbB4 (HER4) (UniProt Q15303 26-651, limits assumed); test: not described
T1 sequence (looked up): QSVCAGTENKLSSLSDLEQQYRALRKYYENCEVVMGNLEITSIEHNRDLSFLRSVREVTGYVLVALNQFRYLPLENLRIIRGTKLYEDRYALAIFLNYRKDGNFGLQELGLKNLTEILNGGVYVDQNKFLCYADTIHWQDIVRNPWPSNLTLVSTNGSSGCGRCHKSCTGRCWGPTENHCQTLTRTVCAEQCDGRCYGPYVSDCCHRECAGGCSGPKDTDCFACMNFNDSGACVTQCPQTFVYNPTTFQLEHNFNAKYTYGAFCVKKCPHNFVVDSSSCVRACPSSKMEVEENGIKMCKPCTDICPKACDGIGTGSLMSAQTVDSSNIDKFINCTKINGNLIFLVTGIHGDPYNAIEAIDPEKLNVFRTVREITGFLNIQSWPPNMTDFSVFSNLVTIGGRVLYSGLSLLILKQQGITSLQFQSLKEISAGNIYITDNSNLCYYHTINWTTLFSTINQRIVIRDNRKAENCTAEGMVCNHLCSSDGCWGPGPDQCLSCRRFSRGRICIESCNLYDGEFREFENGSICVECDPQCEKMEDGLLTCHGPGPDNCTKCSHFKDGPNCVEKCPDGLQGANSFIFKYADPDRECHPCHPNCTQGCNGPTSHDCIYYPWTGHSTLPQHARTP

ErbB3 (HER3) = target: T2, ErbB3 (HER3) (human, UniProt P21860 20-1342); test: not described
T2 construct: whole, on cells
T2 sequence (P21860 20-1342): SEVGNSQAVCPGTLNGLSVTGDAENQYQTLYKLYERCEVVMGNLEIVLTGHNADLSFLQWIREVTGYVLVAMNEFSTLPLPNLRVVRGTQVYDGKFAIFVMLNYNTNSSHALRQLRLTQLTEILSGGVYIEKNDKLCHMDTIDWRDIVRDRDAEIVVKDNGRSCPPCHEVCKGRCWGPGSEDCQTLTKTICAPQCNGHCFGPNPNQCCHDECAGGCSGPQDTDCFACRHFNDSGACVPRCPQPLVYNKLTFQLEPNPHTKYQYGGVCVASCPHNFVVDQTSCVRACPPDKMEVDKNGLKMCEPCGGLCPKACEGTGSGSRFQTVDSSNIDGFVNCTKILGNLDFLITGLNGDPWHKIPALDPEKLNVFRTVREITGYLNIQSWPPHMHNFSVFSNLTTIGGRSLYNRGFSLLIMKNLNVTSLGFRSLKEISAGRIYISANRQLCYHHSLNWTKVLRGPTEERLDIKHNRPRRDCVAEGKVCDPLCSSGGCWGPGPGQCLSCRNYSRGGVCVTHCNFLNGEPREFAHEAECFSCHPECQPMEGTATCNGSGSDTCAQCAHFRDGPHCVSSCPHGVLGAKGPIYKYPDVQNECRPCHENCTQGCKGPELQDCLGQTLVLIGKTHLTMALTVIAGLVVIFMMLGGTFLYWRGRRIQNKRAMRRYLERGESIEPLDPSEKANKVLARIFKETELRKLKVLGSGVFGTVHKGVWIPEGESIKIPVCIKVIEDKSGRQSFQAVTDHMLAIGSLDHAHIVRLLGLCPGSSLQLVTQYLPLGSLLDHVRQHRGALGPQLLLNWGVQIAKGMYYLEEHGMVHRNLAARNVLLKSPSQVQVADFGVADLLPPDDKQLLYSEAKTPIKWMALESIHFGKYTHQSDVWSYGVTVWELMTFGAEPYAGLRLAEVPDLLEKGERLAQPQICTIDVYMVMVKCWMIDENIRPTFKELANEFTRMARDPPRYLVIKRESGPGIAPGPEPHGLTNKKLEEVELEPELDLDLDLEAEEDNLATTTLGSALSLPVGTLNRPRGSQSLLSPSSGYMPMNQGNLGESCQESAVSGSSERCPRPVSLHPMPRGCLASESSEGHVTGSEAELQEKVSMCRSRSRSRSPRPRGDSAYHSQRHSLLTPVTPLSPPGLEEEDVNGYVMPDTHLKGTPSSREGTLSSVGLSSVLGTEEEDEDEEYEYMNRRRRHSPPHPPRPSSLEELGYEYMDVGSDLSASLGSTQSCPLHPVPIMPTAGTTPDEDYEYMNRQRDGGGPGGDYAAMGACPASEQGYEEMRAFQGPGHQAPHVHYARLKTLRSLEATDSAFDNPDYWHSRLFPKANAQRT

B1: murine monoclonal antibody 2C4 (antibody, V domains shown)
VH: EVQLQQSGPELVKPGTSVKISCKASGFTFTDYTMDWVKQSHGKSLEWIGDVNPNSGGSIYNQRFKGKASLTVDRSSRIVYMELRSLTFEDTAVYYCARNLGPSFYFDYWGQGTTLTVSS
VL: DTVMTQSHKIMSTSVGDRVSITCKASQDVSIGVAWYQQRPGQSPKLLIYSASYRYTGVPDRFTGSGSGTDFTFTISSVQAEDLAVYYCQQYYIYPYTFGGGTKLEIK
notes: also called mu 2C4; intact murine 2C4
ErbB4 (HER4)
  binding result: no binding
ErbB3 (HER3)
  binding result: no binding
